Data from the supplement of paper PMC11246515.
± gives the standard deviation of the averaged measurements.

Test: total protein half-life in vivo (active degradation + dilution); higher = more stable protein
[1] = E. coli NCM3722 delta-clpP delta-lon delta-hslV, growth: N-lim chemostat, doubling time 6 h
[2] = E. coli NCM3722 delta-clpP, growth: N-lim chemostat, doubling time 6 h
[3] = E. coli NCM3722 delta-hslV, growth: N-lim chemostat, doubling time 6 h
[4] = E. coli NCM3722 delta-lon, growth: N-lim chemostat, doubling time 6 h
[5] = E. coli NCM3722 delta-smpB, growth: N-lim chemostat, doubling time 6 h
[6] = wild type E. coli NCM3722, growth: C-lim chemostat, doubling time 3 h
[7] = wild type E. coli NCM3722, growth: C-lim chemostat, doubling time 6 h
[8] = wild type E. coli NCM3722, growth: C-lim chemostat, doubling time 12 h
[9] = wild type E. coli NCM3722, growth: N-lim chemostat, doubling time 6 h
[10] = wild type E. coli NCM3722, growth: N-lim chemostat, doubling time 12 h
[11] = wild type E. coli NCM3722, growth: P-lim chemostat, doubling time 6 h
[12] = wild type E. coli NCM3722, growth: P-lim chemostat, doubling time 12 h

Sequence: MMSGEHTLKAVRGSFIDVTRTIDNPEEIASALRFIEDGLLLIKQGKVEWFGEWENGKHQIPDTIRVRDYRGKLIVPGFVDTHIHYPQSEMVGAYGEQLLEWLNKHTFPTERRYEDLEYAREMSAFFIKQLLRNGTTTALVFGTVHPQSVDALFEAASHINMRMIAGKVMMDRNAPDYLLDTAESSYHQSKELIERWHKNGRLLYAITPRFAPTSSPEQMAMAQRLKEEYPDTWVHTHLCENKDEIAWVKSLYPDHDGYLDVYHQYGLTGKNCVFAHCVHLEEKEWDRLSETKSSIAFCPTSNLYLGSGLFNLKKAWQKKVKVGMGTDIGAGTTFNMLQTLNEAYKVLQLQGYRLSAYEAFYLATLGGAKSLGLDDLIGNFLPGKEADFVVMEPTATPLQQLRYDNSVSLVDKLFVMMTLGDDRSIYRTYVDGRLVYERN
- total protein half-life in vivo [1]: 5.05 ± 0.34 h
- total protein half-life in vivo [2]: 3.95 ± 0.22 h
- total protein half-life in vivo [3]: 4.26 ± 0.28 h
- total protein half-life in vivo [4]: 4.12 ± 0.085 h
- total protein half-life in vivo [5]: 3.79 ± 0.042 h
- total protein half-life in vivo [6]: 3.26 ± 0.59 h
- total protein half-life in vivo [7]: 6.35 ± 1.1 h
- total protein half-life in vivo [8]: 10.2 ± 0.27 h
- total protein half-life in vivo [9]: 3.78 ± 0.16 h
- total protein half-life in vivo [10]: 7.14 ± 1.4 h
- total protein half-life in vivo [11]: 5.87 h

Sequence: MMVTVVSNYCQLSQTQLSQTFAEKFTVTEELLQSLKKTALSGDEESIELLHNIALGYDKFGKEAEDILYHIVRTPTNETLSIIRLIKNACLKLYNLAHIATNSPLKSHDSDDLLFKKLFSPSKLMTIIGDEIPLISEKQSLSKVLLNDENNELSDGTNFWDKNRQLTTDEIACYLQKIAANAKNTQVNYPTGLYVPYSTRTHLEDALNENIKSDPSWPNEVQLFPINTGGHWILVSLQKIVNKKNNKLQIKCVIFNSLRALGYDKENSLKRVINSFNSELMGEMSNNNIKVHLNEPEIIFLHADLQQYLSQSCGAFVCMAAQEVIEQRESNSDSAPYTLLKNHADRFKKYSAEEQYEIDFQHRLANRNCYLDKYGDANINHYYRNLEIKHSQPKNRASGKRVS
- total protein half-life in vivo [1]: 6.83 h

Sequence: MNAEKSPVNHNVDHEEIAKFEAVASRWWDLEGEFKPLHRINPLRLGYIAERAGGLFGKKVLDVGCGGGILAESMAREGATVTGLDMGFEPLQVAKLHALESGIQVDYVQETVEEHAAKHAGQYDVVTCMEMLEHVPDPQSVVRACAQLVKPGGDVFFSTLNRNGKSWLMAVVGAEYILRMVPKGTHDVKKFIKPAELLGWVDQTSLKERHITGLHYNPITNTFKLGPGVDVNYMLHTQNK
- total protein half-life in vivo [1]: 4.74 ± 0.1 h
- total protein half-life in vivo [2]: 4.09 ± 0.23 h
- total protein half-life in vivo [3]: 3.48 ± 0.11 h
- total protein half-life in vivo [4]: 4.02 ± 0.45 h
- total protein half-life in vivo [5]: 3.46 ± 0.082 h
- total protein half-life in vivo [6]: 2.45 ± 0.027 h
- total protein half-life in vivo [7]: 4.96 ± 0.83 h
- total protein half-life in vivo [8]: 6.694 ± 0.058 h
- total protein half-life in vivo [9]: 3.85 ± 0.49 h
- total protein half-life in vivo [10]: 5.66 ± 0.72 h
- total protein half-life in vivo [11]: 3.13 ± 0.38 h
- total protein half-life in vivo [12]: 5.66 ± 0.45 h

Sequence: MNAIISPDYYYVLTVAGQSNAMAYGEGLPLPDREDAPHPRIKQLARFAHTHPGGPPCHFNDIIPLTHCPHDVQDMQGYHHPLATNHQTQYGTVGQALHIARKLLPFIPDNAGILIVPCCRGGSAFTAGSEGTYSERHGASHDACRWGTDTPLYQDLVSRTRAALAKNPQNKFLGACWMQGEFDLMTSDYASHPQHFNHMVEAFRRDLKQYHSQLNNITDAPWFCGDTTWYWKENFPHSYEAIYGNYQNNVLANIIFVDFQQQGERGLTNAPDEDPDDLSTGYYGSAYRSPENWTTALRSSHFSTAARRGIISDRFVEAILQFWRER
- total protein half-life in vivo [1]: 5.07 ± 0.92 h
- total protein half-life in vivo [2]: 3.59 ± 0.15 h
- total protein half-life in vivo [3]: 3.413 ± 0.026 h
- total protein half-life in vivo [5]: 3.46 ± 0.15 h
- total protein half-life in vivo [6]: 3.16 h
- total protein half-life in vivo [8]: 8.77 ± 0.83 h
- total protein half-life in vivo [9]: 3.38 h
- total protein half-life in vivo [11]: 5.15 ± 0.32 h
- total protein half-life in vivo [12]: 13.2 h

Sequence: MNALTAVQNNAVDSGQDYSGFTLTPSAQSPRLLELTFTEQTTKQFLEQVAEWPVQALEYKSFLRFRVAKILDDLCANQLQPLLLKTLLNRAEGALLINAVGVDDVKQADEMVKLATAVAHLIGRSNFDAMSGQYYARFVVKNVDNSDSYLRQPHRVMELHNDGTYVEEITDYVLMMKIDEQNMQGGNSLLLHLDDWEHLDNYFRHPLARRPMRFAAPPSKNVSKDVFHPVFDVDQQGRPVMRYIDQFVQPKDFEEGVWLSELSDAIETSKGILSVPVPVGKFLLINNLFWLHGRDRFTPHPDLRRELMRQRGYFAYASNHYQTHQ
- total protein half-life in vivo [1]: 5.49 ± 0.24 h
- total protein half-life in vivo [2]: 1.73 ± 0.11 h
- total protein half-life in vivo [6]: 0.794 ± 0.23 h
- total protein half-life in vivo [7]: 1.18 ± 0.23 h
- total protein half-life in vivo [8]: 0.791 ± 0.35 h
- total protein half-life in vivo [9]: 1.3 h
- total protein half-life in vivo [10]: 1.1 ± 0.12 h
- total protein half-life in vivo [12]: 1.17 ± 0.72 h

Sequence: MNDAVITLNGLEKRFPGMDKPAVAPLDCTIHAGYVTGLVGPDGAGKTTLMRMLAGLLKPDSGSATVIGFDPIKNDGALHAVLGYMPQKFGLYEDLTVMENLNLYADLRSVTGEARKQTFARLLEFTSLGPFTGRLAGKLSGGMKQKLGLACTLVGEPKVLLLDEPGVGVDPISRRELWQMVHELAGEGMLILWSTSYLDEAEQCRDVLLMNEGELLYQGEPKALTQTMAGRSFLMTSPHEGNRKLLQRALKLPQVSDGMIQGKSVRLILKKEATPDDIRHADGMPEININETTPRFEDAFIDLLGGAGTSESPLGAILHTVEGTPGETVIEAKELTKKFGDFAATDHVNFAVKRGEIFGLLGPNGAGKSTTFKMMCGLLVPTSGQALVLGMDLKESSGKARQHLGYMAQKFSLYGNLTVEQNLRFFSGVYGLRGRAQNEKISRMSEAFGLKSIASHATDELPLGFKQRLALACSLMHEPDILFLDEPTSGVDPLTRREFWLHINSMVEKGVTVMVTTHFMDEAEYCDRIGLVYRGKLIASGTPDDLKAQSANDEQPDPTMEQAFIQLIHDWDKEHSNE [P0A9U1]
- total protein half-life in vivo [1]: 5.78 ± 0.23 h
- total protein half-life in vivo [2]: 6.03 ± 0.77 h
- total protein half-life in vivo [3]: 6.28 ± 0.41 h
- total protein half-life in vivo [4]: 6.03 ± 0.23 h
- total protein half-life in vivo [5]: 5.83 ± 0.5 h
- total protein half-life in vivo [6]: 3.32 ± 0.15 h
- total protein half-life in vivo [8]: 11.8 ± 2.2 h
- total protein half-life in vivo [9]: 6.05 ± 0.092 h
- total protein half-life in vivo [10]: 12.6 ± 1.7 h
- total protein half-life in vivo [11]: 6.15 ± 0.14 h
- total protein half-life in vivo [12]: 12.3 ± 0.47 h

Sequence: MNDYKMTPGERRATWGLGTVFSLRMLGMFMVLPVLTTYGMALQGASEALIGIAIGIYGLTQAVFQIPFGLLSDRIGRKPLIVGGLAVFAAGSVIAALSDSIWGIILGRALQGSGAIAAAVMALLSDLTREQNRTKAMAFIGVSFGITFAIAMVLGPIITHKLGLHALFWMIAILATTGIALTIWVVPNSSTHVLNRESGMVKGSFSKVLAEPRLLKLNFGIMCLHILLMSTFVALPGQLADAGFPAAEHWKVYLATMLIAFGSVVPFIIYAEVKRKMKQVFVFCVGLIVVAEIVLWNAQTQFWQLVVGVQLFFVAFNLMEALLPSLISKESPAGYKGTAMGVYSTSQFLGVAIGGSLGGWINGMFDGQGVFLAGAMLAAVWLTVASTMKEPPYVSSLRIEIPANIAANEALKVRLLETEGIKEVLIAEEEHSAYVKIDSKVTNRFEIEQAIRQA
- total protein half-life in vivo [1]: 5.51 h
- total protein half-life in vivo [2]: 5.38 ± 0.66 h
- total protein half-life in vivo [4]: 5.73 ± 0.96 h
- total protein half-life in vivo [5]: 5.16 ± 0.38 h
- total protein half-life in vivo [6]: 3.17 ± 0.88 h
- total protein half-life in vivo [7]: 5.45 ± 0.11 h
- total protein half-life in vivo [8]: 11.2 ± 1.9 h
- total protein half-life in vivo [9]: 5.15 ± 0.25 h
- total protein half-life in vivo [10]: 10.1 ± 0.3 h
- total protein half-life in vivo [11]: 5.42 ± 0.72 h
- total protein half-life in vivo [12]: 8.82 ± 0.54 h

Sequence: MNEFPVVLVINCGSSSIKFSVLDASDCEVLMSGIADGINSENAFLSVNGGEPAPLAHHSYEGALKAIAFELEKRNLNDSVALIGHRIAHGGSIFTESAIITDEVIDNIRRVSPLAPLHNYANLSGIESAQQLFPGVTQVAVFDTSFHQTMAPEAYLYGLPWKYYEELGVRRYGFHGTSHRYVSQRAHSLLNLAEDDSGLVVAHLGNGASICAVRNGQSVDTSMGMTPLEGLMMGTRSGDVDFGAMSWVASQTNQSLGDLERVVNKESGLLGISGLSSDLRVLEKAWHEGHERAQLAIKTFVHRIARHIAGHAASLRRLDGIIFTGGIGENSSLIRRLVMEHLAVLGLEIDTEMNNRSNSCGERIVSSENARVICAVIPTNEEKMIALDAIHLGKVNAPAEFA
- total protein half-life in vivo [1]: 3.9 h

Sequence: MNEFSILCRVLGSLYYRQPQDPLLVPLFTLIREGKLAANWPLEQDELLTRLQKSCDMTQVSADYNALFIGDECAVPPYRSAWVEGATEAEVRAFLSERGMPLADTPADHIGTLLLAASWLEDQSTEDESEALETLFSEYLLPWCGAFLGKVEAHATTPFWRTMAPLTRDAISAMWDELEEDSEE
- total protein half-life in vivo [1]: 5.33 ± 0.97 h
- total protein half-life in vivo [2]: 5.83 ± 1.6 h
- total protein half-life in vivo [3]: 5.14 ± 0.17 h
- total protein half-life in vivo [4]: 5.97 ± 1.5 h
- total protein half-life in vivo [5]: 5.24 ± 0.65 h
- total protein half-life in vivo [6]: 3.342 ± 0.021 h
- total protein half-life in vivo [7]: 6.25 ± 0.39 h
- total protein half-life in vivo [9]: 4.99 ± 0.71 h
- total protein half-life in vivo [10]: 9.91 ± 0.97 h

Sequence: MNEHHQPFEEIKLINANGAEQWSARQLGKLLGYSEYRHFIPVLTRAKEACENSGHTIDDHFEEILDMVKIGSNAKRALKDIVLSRYACYLVVQNGDPAKPVIAAGQTYFAIQTRRQELADDEAFKQLREDEKRLFLRNELKEHNKQLVEAAQQAGVATATDFAIFQNHGYQGLYGGLDQKAIHQRKGLKKNQKILDHMGSTELAANLFRATQTEEKLKRDGVNSKQQANTTHFDVGRKVRQTIQELGGTMPEELPTPQVSIKQLENSVKITEKK
- total protein half-life in vivo [6]: 2.12 h
- total protein half-life in vivo [7]: 3.02 h
- total protein half-life in vivo [8]: 5.87 h

Sequence: MNEQSQAKSPEALRAMVAGTLANFQHPTLKHNLTTLKALHHVAWMDDTLHVELVMPFVWHSAFEELKEQCSAELLRITGAKAIDWKLSHNIATLKRVKNQPGINGVKNIIAVSSGKGGVGKSSTAVNLALALAAEGAKVGILDADIYGPSIPTMLGAENQRPTSPDGTHMAPIMSHGLATNSIGYLVTDDNAMVWRGPMASKALMQMLQETLWPDLDYLVLDMPPGTGDIQLTLAQNIPVTGAVVVTTPQDIALIDAKKGIVMFEKVEVPVLGIVENMSVHICSNCGHHEPIFGTGGAEKLAEKYHTQLLGQMPLHISLREDLDKGTPTVISRPESEFTAIYRQLADRVAAQLYWQGEVIPGEISFRAV [P0AF08]
- total protein half-life in vivo [1]: 5.1 ± 1 h
- total protein half-life in vivo [2]: 4.454 ± 0.02 h
- total protein half-life in vivo [3]: 3.96 ± 0.12 h
- total protein half-life in vivo [4]: 4.15 ± 0.34 h
- total protein half-life in vivo [5]: 3.876 ± 0.013 h
- total protein half-life in vivo [6]: 2.87 ± 0.2 h
- total protein half-life in vivo [7]: 5.22 ± 0.23 h
- total protein half-life in vivo [8]: 9.46 ± 1.4 h
- total protein half-life in vivo [9]: 3.71 ± 0.21 h
- total protein half-life in vivo [10]: 5.9098 ± 0.00063 h
- total protein half-life in vivo [11]: 5.19 ± 0.43 h
- total protein half-life in vivo [12]: 9.96 ± 0.64 h
